According to article doi:10.1101/2020.09.11.292599 (bioRxiv, 2020):
Read-outs that look alike come from different tables or passages of the source.

T1: His6-tagged 2,3-bisphosphoglycerate-independent phosphoglycerate mutase (PGAM, Slr1945) (Synechocystis sp. PCC 6803, UniProt P74507 1-532)
T1 sequence (looked up): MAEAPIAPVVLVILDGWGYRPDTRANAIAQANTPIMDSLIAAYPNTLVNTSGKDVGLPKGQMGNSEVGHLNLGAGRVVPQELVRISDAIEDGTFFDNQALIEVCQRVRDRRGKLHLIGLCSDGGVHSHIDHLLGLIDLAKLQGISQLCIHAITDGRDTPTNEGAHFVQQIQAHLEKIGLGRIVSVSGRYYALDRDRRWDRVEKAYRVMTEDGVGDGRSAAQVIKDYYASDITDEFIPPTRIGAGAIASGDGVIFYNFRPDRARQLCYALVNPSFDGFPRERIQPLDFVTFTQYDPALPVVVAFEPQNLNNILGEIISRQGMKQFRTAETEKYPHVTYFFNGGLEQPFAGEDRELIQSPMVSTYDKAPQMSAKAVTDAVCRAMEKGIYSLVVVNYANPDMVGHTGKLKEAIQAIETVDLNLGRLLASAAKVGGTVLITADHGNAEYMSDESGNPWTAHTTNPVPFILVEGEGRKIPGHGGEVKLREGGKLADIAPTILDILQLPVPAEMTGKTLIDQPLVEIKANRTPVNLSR

B1: recombinant PII, tag not stated for this experiment (natural protein, UniProt Q55247 1-112, looked up)
chain: MKKVEAIIRPFKLDEVKIALVNAGIVGMTVSEVRGFGRQKGQTERYRGSEYTVEFLQKLKIEIVVDEGQVDMVVDKLVSAARTGEIGDGKIFISPVDSVVRIRTGEKDTEAI

What was measured:
[1] = biological target: T2, C-terminally His8-tagged PII (UniProt Q55247 1-112); test: BLI
[2] = biological target: T2, C-terminally His8-tagged PII; test: BLI; remark: listed apart in the source
[3] = biological target: T1, His6-tagged …; test: BLI
[4] = biological target: T1, His6-tagged …; test: BLI; remark: listed apart in the source
[5] = biological target: T2, C-terminally His8-tagged PII; test: SPR
[6] = biological target: B1; test: SEC-MALS
SEC-MALS = biological target: the molecule itself; test: SEC-MALS

Kd [1] | Kd [2] | Kd [3] | Kd [4] | stoichiometry N [5] | stoichiometry N [6] | Binder | stoichiometry N (SEC-MALS)
37.3 ± 2.5 nM | 14.1 ± 0.7 nM | 459 nM | 1700 nM | – | – | Strep-tagged PirC (Sll0944), 112 amino acid version starting at Met 53 (natural protein, Synechocystis sp. PCC 6803, UniProt P77971 53-164, looked up) MSQILDPIPNNQPSALFCCYVNATNQIQVARITNVPNWYFERVVFPGQRLVFEAVPSAQLEIHTGMMASSIISDTIPCEQLSIDPDGLAAGGFISPEKEHESEDMTSQSLVA | –
– | – | – | – | ~1 PirC monomer per PII trimer | 1 PirC monomer per PII trimer | recombinant PirC (Sll0944), 112 amino acid version, tag not stated for this experiment (natural protein, Synechocystis sp. PCC 6803, UniProt P77971 53-164, looked up) MSQILDPIPNNQPSALFCCYVNATNQIQVARITNVPNWYFERVVFPGQRLVFEAVPSAQLEIHTGMMASSIISDTIPCEQLSIDPDGLAAGGFISPEKEHESEDMTSQSLVA | 2
– | – | – | – | – | – | B1 | 3
